Columns and labels:
Assay in all cases: EMSA
[1] = system: Protamine-like proteins mixture (PL-II, PL-III, PL-IV), 100 nM Cr(VI)-exposed mussels (Mytilus galloprovincialis); details: mussels exposed to 100 nM Cr(VI), DNA (150 ng pGEM3 or 450 ng sperm DNA) plus PLs in ultrapure water, 30 uL, 5 min, room temperature, TBE to 1x added just before the run, 1% (plasmid) or 0.6% …
[2] = system: Protamine-like proteins mixture (PL-II, PL-III, PL-IV), 1 nM Cr(VI)-exposed mussels (Mytilus galloprovincialis); details: mussels exposed to 1 nM Cr(VI); saturation not reached; DNA (150 ng pGEM3 or 450 ng sperm DNA) plus PLs in ultrapure water, 30 uL, 5 min, room temperature; TBE to 1x added just before the run; 1% (plasmid) or 0.6% …
[3] = system: Protamine-like proteins mixture (PL-II, PL-III, PL-IV), 10 nM Cr(VI)-exposed mussels (Mytilus galloprovincialis); details: mussels exposed to 10 nM Cr(VI), DNA (150 ng pGEM3 or 450 ng sperm DNA) plus PLs in ultrapure water, 30 uL, 5 min, room temperature, TBE to 1x added just before the run, 1% (plasmid) or 0.6% …
[4] = system: Protamine-like proteins mixture (PL-II, PL-III, PL-IV), unexposed mussels (Mytilus galloprovincialis); details: DNA (150 ng pGEM3 or 450 ng sperm DNA) plus PLs in ultrapure water, 30 uL, 5 min, room temperature, TBE to 1x added just before the run, 1% (plasmid) or 0.6% …
[5] = scale: wt/wt protein/DNA at almost complete saturation

pGEM3 plasmid
binding signal (wt/wt protein/DNA at saturation) [1]: 0.8 | binding signal (wt/wt protein/DNA at saturation) [2]: > 1.8 | binding signal (wt/wt protein/DNA at saturation) [3]: 0.8 | binding signal (wt/wt protein/DNA at saturation) [4]: 0.8

sperm genomic DNA
binding signal [1, 5]: 0.6 | binding signal [3, 5]: 0.6 | binding signal ([4]; unexposed, scale: wt/wt protein/DNA at almost complete saturation): 0.6

— paper PMC9138527
